Residue numbers refer to the chain shown, from its start.
B1: 372 (protein)
chain: LDNGLARTPTMGWLHWERFMCNLDCQEEPDSCISEKLFMEMAEVMVSEGWKDAGYEYLCIDDCWMAPQRDSEGRLQADPQRFPHGIRQLANYVHSKGLKLGIYADVGNKTCAGFPGSFGYYDIDAQTFADWGVDLLKFDGCYCDSLENLADGYKHMSLALNRTGRSIVYSCEWPLYMWPFQKPNYTEIRQYCNHWRNFADIDDSWKSIKSILDWTSRNQERIVDVAGPGGWNDPDMLVIGNFGLSWDQQVTQMALWAIMAAPLFMSNDLRHISPQAKALLQDKDVIAINQDPLGKQGYQLRKGDNFEVWERPLSGDAWAVAIINRQEIGGPRSYTIPVASLGKGVACNPACFITQLLPVKRQLGFYNWTSRLKSHINPTGTVLLQLENTMQMSLKDLL
modifications: Synthetic Polypeptide sequence of Variant No. 372 of mature Human GLA
B2: 498 (protein)
chain: LDNGLARTPTMGWLHWERFMCNLDCQEEPDSCISEKLFMEMAERMVSEGWKDAGYEYLCIDDCWMAPQRDSEGRLQADPQRFPHGIRQLANYVHSKGLKLGIYADVGNKTCAGFPGSFGYYDIDAQTFADWGVDLLKFDGCYCDSLENLADGYKHMSLALNRTGRSIVYSCEWPLYMWPFQKPNYTEIRQYCNHWRNFADIDDSWKSIKSILDWTSFNQERIVDVAGPGGWNDPDMLVIGNFGLSWNQQVTQMALWAIMAAPLFMSNDLRHISPQAKALLQDKDVIAINQDPLGKQGYQLRQGDNFEVWERPLSGLAWAVAMINRQEIGGPRSYTIAVASLGKGVACNPACFITQLLPVKRKLGFYEWTSRLRSHINPTGTVLLQLENTMQISLKDLL
modifications: Synthetic Polypeptide sequence of Variant No. 498 of mature Human GLA
B3: 510 (protein)
chain: B2 chain with A199G, I392R
modifications: Synthetic Polypeptide sequence of Variant No. 510 of mature Human GLA
B4: 509 (protein)
chain: B2 chain with Q385T, I392M
modifications: Synthetic Polypeptide sequence of Variant No. 509 of mature Human GLA
B5: 499 (protein)
chain: B2 chain with T389L, I392M
modifications: Synthetic Polypeptide sequence of Variant No. 499 of mature Human GLA
B6: 506 (protein)
chain: B2 chain with Q385W, I392M
modifications: Synthetic Polypeptide sequence of Variant No. 506 of mature Human GLA
B7: 502 (protein)
chain: B2 chain with L386S, I392M
modifications: Synthetic Polypeptide sequence of Variant No. 502 of mature Human GLA
B8: 505 (protein)
chain: B2 chain with I392N
modifications: Synthetic Polypeptide sequence of Variant No. 505 of mature Human GLA
B9: 503 (protein)
chain: B2 chain with Q385C, I392M
modifications: Synthetic Polypeptide sequence of Variant No. 503 of mature Human GLA
B10: 500 (protein)
chain: B2 chain with M390A, I392M
modifications: Synthetic Polypeptide sequence of Variant No. 500 of mature Human GLA
B11: 508 (protein)
chain: B2 chain with L384A, I392M
modifications: Synthetic Polypeptide sequence of Variant No. 508 of mature Human GLA
B12: 507 (protein)
chain: B2 chain with I392T
modifications: Synthetic Polypeptide sequence of Variant No. 507 of mature Human GLA
B13: 504 (protein)
chain: B2 chain with M390S, I392M
modifications: Synthetic Polypeptide sequence of Variant No. 504 of mature Human GLA
B14: 501 (protein)
chain: B2 chain with I392G
modifications: Synthetic Polypeptide sequence of Variant No. 501 of mature Human GLA

What was measured:
Type in all cases: biochemical
[1] = HTP-analysis of yeast culture supernatants, no challenge (MUGal hydrolysis); conditions: activity of the variant/activity of Rd4BB (SEQ ID NO: 15)
Procedure, shortened: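 Activity read as 4-methylumbelliferyl α-D-galactopyranoside hydrolysis: fluorescence (355/448 nm) after sodium carbonate stop, following 30-180 min at 37° C with 2 mM MUGal stock at pH 4.6–4.8. Enzyme source is unchallenged culture supernatant of INVSc1 yeast expressing GLA variants, grown 66-84 h at 30° C.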

[2] = HTP-analysis of supernatants pretreated with base (MUGal hydrolysis); conditions: activity of the variant/activity of Rd4BB (SEQ ID NO: 15); challenge at pH 9.65
Procedure, shortened: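 GLA variants secreted from yeast INVSc1; culture supernatants pre-incubated with McIlvaine buffer pH 7.0–8.2 or 200 mM bicarbonate pH 9.1–9.7 at 37° C. for 1–18 h. Residual activity: MUGal (4 mM stock) hydrolysis at pH 4.3–4.8, 37° C., 30–180 min, carbonate quench; fluorescence Ex 355/Em 448 nm.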

[3] = HTP-analysis of supernatants pretreated with acid (MUGal hydrolysis); conditions: activity of the variant/activity of Rd4BB (SEQ ID NO: 15); challenge at pH 3.7
Procedure, shortened: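 MUGal hydrolysis was tracked by fluorescence (Ex 355 nm, Em 448 nm) after a 30-180 min reaction at 37° C. in pH 4.8 McIlvaine/citrate buffer, stopped with 1 M sodium carbonate. Beforehand, yeast (INVSc1) culture supernatants carrying GLA variants were held 1-3 h at 37° C. in acidic McIlvaine buffer, pH 3.3-4.3.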

Row | Molecule | Relative Activity of GLA Variants After No Challenge (NC) [1] | Relative Activity of GLA Variants After Challenge at pH 9.65 [2] | Relative Activity of GLA Variants After Challenge at pH 3.7 [3]
1 | B1 | + (0.5 to 1.5 relative activity over Rd4BB (SEQ ID NO: 15)) | + (0.5 to 1.5 relative activity over Rd4BB (SEQ ID NO: 15)) | − (<0.5 relative activity over Rd4BB (SEQ ID NO: 15))
2 | B2 | + (0.5 to 1.5 relative activity over Rd4BB (SEQ ID NO: 15)) | + (0.5 to 1.5 relative activity over Rd4BB (SEQ ID NO: 15)) | + (0.5 to 1.5 relative activity over Rd4BB (SEQ ID NO: 15))
3 | B3 | + (0.5 to 1.5 relative activity over Rd4BB (SEQ ID NO: 15)) | + (0.5 to 1.5 relative activity over Rd4BB (SEQ ID NO: 15)) | − (<0.5 relative activity over Rd4BB (SEQ ID NO: 15))
4 | B4 | + (0.5 to 1.5 relative activity over Rd4BB (SEQ ID NO: 15)) | + (0.5 to 1.5 relative activity over Rd4BB (SEQ ID NO: 15)) | + (0.5 to 1.5 relative activity over Rd4BB (SEQ ID NO: 15))
5 | B5 | + (0.5 to 1.5 relative activity over Rd4BB (SEQ ID NO: 15)) | + (0.5 to 1.5 relative activity over Rd4BB (SEQ ID NO: 15)) | + (0.5 to 1.5 relative activity over Rd4BB (SEQ ID NO: 15))
6 | B6 | + (0.5 to 1.5 relative activity over Rd4BB (SEQ ID NO: 15)) | − (<0.5 relative activity over Rd4BB (SEQ ID NO: 15)) | + (0.5 to 1.5 relative activity over Rd4BB (SEQ ID NO: 15))
7 | B7 | − (<0.5 relative activity over Rd4BB (SEQ ID NO: 15)) | − (<0.5 relative activity over Rd4BB (SEQ ID NO: 15)) | + (0.5 to 1.5 relative activity over Rd4BB (SEQ ID NO: 15))
8 | B8 | + (0.5 to 1.5 relative activity over Rd4BB (SEQ ID NO: 15)) | + (0.5 to 1.5 relative activity over Rd4BB (SEQ ID NO: 15)) | + (0.5 to 1.5 relative activity over Rd4BB (SEQ ID NO: 15))
9 | B9 | + (0.5 to 1.5 relative activity over Rd4BB (SEQ ID NO: 15)) | + (0.5 to 1.5 relative activity over Rd4BB (SEQ ID NO: 15)) | + (0.5 to 1.5 relative activity over Rd4BB (SEQ ID NO: 15))
10 | B10 | + (0.5 to 1.5 relative activity over Rd4BB (SEQ ID NO: 15)) | + (0.5 to 1.5 relative activity over Rd4BB (SEQ ID NO: 15)) | + (0.5 to 1.5 relative activity over Rd4BB (SEQ ID NO: 15))
11 | B11 | − (<0.5 relative activity over Rd4BB (SEQ ID NO: 15)) | − (<0.5 relative activity over Rd4BB (SEQ ID NO: 15)) | − (<0.5 relative activity over Rd4BB (SEQ ID NO: 15))
12 | B12 | + (0.5 to 1.5 relative activity over Rd4BB (SEQ ID NO: 15)) | + (0.5 to 1.5 relative activity over Rd4BB (SEQ ID NO: 15)) | ++ (>1.5 to 2.5 relative activity over Rd4BB (SEQ ID NO: 15))
13 | B13 | + (0.5 to 1.5 relative activity over Rd4BB (SEQ ID NO: 15)) | + (0.5 to 1.5 relative activity over Rd4BB (SEQ ID NO: 15)) | + (0.5 to 1.5 relative activity over Rd4BB (SEQ ID NO: 15))
14 | B14 | + (0.5 to 1.5 relative activity over Rd4BB (SEQ ID NO: 15)) | + (0.5 to 1.5 relative activity over Rd4BB (SEQ ID NO: 15)) | ++ (>1.5 to 2.5 relative activity over Rd4BB (SEQ ID NO: 15))

Source: patent US11278600B2, “Human alpha-galactosidase variants” (Codexis, Inc., priority 2014, dated 2022)
